{"source": "paper PMC8133684", "about": "“The URL1–ROC5–TPL2 transcriptional repressor complex represses the ACL1 gene to modulate leaf rolling in rice”", "binders": {"B1": {"name": "mACL1 L1-box I (L1 box deleted) (dsDNA)", "DNA 1": "ACCGACTAATGGCAATATAAAGATATACCATATCCTGTACTAAGCAATAACCTA", "DNA 2": "TAGGTTATTGCTTAGTACAGGATATGGTATATCTTTATATTGCCATTAGTCGGT"}, "B2": {"name": "mACL1 L1-box II (L1 box deleted) (dsDNA)", "DNA 1": "TTATCATAAAAGAAACTATAATATTAACTTACATTACTTTAAGGCAA", "DNA 2": "TTGCCTTAAAGTAATGTAAGTTAATATTATAGTTTCTTTTATGATAA"}, "B3": {"name": "ACL1 L1-box I unlabeled competitor (dsDNA)", "DNA 1": "CCGACTAATGGCAATATATACGTGCAAAGATACATTTATATACCATATCCTGTACTAAGCAATAACCTA", "DNA 2": "TAGGTTATTGCTTAGTACAGGATATGGTATATAAATGTATCTTTGCACGTATATATTGCCATTAGTCGG"}, "B4": {"name": "ACL1 L1-box II unlabeled competitor (dsDNA)", "DNA 1": "TTATCATAAAAGAAACTATAATATTAACTTATACATTTACATATTTATACTAAATTTTTAAATAAGGCAA", "DNA 2": "TTGCCTTATTTAAAAATTTAGTATAAATATGTAAATGTATAAGTTAATATTATAGTTTCTTTTATGATAA"}}, "key": {"GST-URL1 (ROC8) [1]": {"target": "T1, GST-URL1 (ROC8) (Oryza sativa L., UniProt Q69T58 1-710)", "T1 sequence": "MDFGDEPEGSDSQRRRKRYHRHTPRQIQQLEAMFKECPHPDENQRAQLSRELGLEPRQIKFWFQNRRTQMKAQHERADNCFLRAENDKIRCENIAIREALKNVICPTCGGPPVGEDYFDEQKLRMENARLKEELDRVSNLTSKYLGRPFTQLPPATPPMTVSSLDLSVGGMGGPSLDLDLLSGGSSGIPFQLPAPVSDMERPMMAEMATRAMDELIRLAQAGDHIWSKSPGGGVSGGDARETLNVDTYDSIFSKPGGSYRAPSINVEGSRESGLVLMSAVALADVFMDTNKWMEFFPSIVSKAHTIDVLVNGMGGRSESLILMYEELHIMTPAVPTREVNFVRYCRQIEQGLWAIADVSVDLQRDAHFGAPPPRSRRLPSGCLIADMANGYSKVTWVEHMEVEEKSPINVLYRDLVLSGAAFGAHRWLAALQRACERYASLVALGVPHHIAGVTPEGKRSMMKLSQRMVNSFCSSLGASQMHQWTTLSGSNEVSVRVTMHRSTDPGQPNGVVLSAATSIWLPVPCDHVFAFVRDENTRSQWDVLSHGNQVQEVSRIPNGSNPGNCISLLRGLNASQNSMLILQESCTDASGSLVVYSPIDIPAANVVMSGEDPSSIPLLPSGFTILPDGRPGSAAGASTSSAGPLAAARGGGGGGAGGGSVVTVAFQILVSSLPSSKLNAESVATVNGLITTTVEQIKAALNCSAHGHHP", "experiment": "EMSA; LightShift Chemiluminescent EMSA Kit; buffer, salt, pH and temperature not stated", "conditions": "protein: recombinant; tags: N-terminal GST (pCold-GST); chain copies: 2; label: 3' biotin; blunt"}, "GST-URL1 (ROC8) [2]": {"target": "T1, GST-URL1 (ROC8)", "experiment": "competition; 100-, 300-, 1000-fold excess vs labeled L1-box I probe; LightShift Chemiluminescent EMSA Kit; buffer, salt, pH and temperature not stated", "conditions": "protein: recombinant; tags: N-terminal GST (pCold-GST); chain copies: 2; blunt"}, "GST-URL1 (ROC8) [3]": {"target": "T1, GST-URL1 (ROC8)", "experiment": "competition; 100-, 300-, 1000-fold excess vs labeled L1-box II probe; LightShift Chemiluminescent EMSA Kit; buffer, salt, pH and temperature not stated", "conditions": "protein: recombinant; tags: N-terminal GST (pCold-GST); chain copies: 2; blunt"}}}
{"binder": "B1", "values": [{"measurement": "binding result", "setting": "GST-URL1 (ROC8) [1]", "value": "no binding"}]}
{"binder": "B2", "values": [{"measurement": "binding result", "setting": "GST-URL1 (ROC8) [1]", "value": "no binding"}]}
{"binder": "B3", "values": [{"measurement": "binding result", "setting": "GST-URL1 (ROC8) [2]", "value": "binds"}]}
{"binder": "B4", "values": [{"measurement": "binding result", "setting": "GST-URL1 (ROC8) [3]", "value": "binds"}]}
